From article doi:10.1101/2020.08.16.253294 (bioRxiv, 2020)
Substitutions are numbered along the chain they refer to. Numbers in names are those of the source.

B1: extracellular domain of ZIP4 from Pteropus alecto (black fruit bat), wild type (domain or fragment)
chain: SGQGALDRVALGGLLNTLAARVHCTSGPCGKCLSVDDLLALGRPEEPGHLARLSAAAALYLSDPEGTCEDIRAGRWASRADHLLALLEGPKALAPGLSRLLQRIQAQTTGQPSAGEACVDPPQLLREAGVAGAPGSPGPVLATLLEHVGRGSCFHTLPTPQYFVDFVFQQSHGNTPNISVAELAALMQRLGVGGVTETHSDHHHQEKRVNRQGPTPLTAPNSSSDTWDTVCLSARDVMAVYGLSEQTGVTPEAWAQLSPALLQQQLSGACSPQPSHPAQNQLSQAEK
B2: pZIP4-ECD Q299H variant (domain or fragment)
chain: B1 chain with Q264H
B3: pZIP4-ECD P193L variant (domain or fragment)
chain: B1 chain with P158L
B4: pZIP4-ECD A91T variant (domain or fragment)
chain: B1 chain with A56T
B5: pZIP4-ECD R87C variant (domain or fragment)
chain: B1 chain with R52C
B6: pZIP4-ECD C64R variant (domain or fragment)
chain: B1 chain with C29R

Target: the molecule itself
Assay: SEC

Protein	stoichiometry N
B1	2
B2	2
B3	2
B4	2
B5	2
B6	2
